We go through eight compounds from PMC10672168, “Invasive Staphylococcus epidermidis uses a unique processive wall teichoic acid glycosyltransferase to evade immune recognition” (Science Advances, 2023).

One test deals with TarM(Se). Conditions: 30 mM ligand; acceptor site; only two RboP units and one phosphate ordered; monomeric mutant.
The target in test [1] is TarM(Se) E10A mutant (S. epidermidis). Description: SEC; Superdex 200 increase 10/30, calibrated column; buffer D: 20 mM triethanolamine pH 7.8 (TarM(Se)_(G117R)) or 8.5 (TarM(Se) and mutant proteins), 250 mM LiCl, 10 mM β-mercaptoethanol, 5% glycerol.
Test [2] deals with TarM(Se) K233A mutant (S. epidermidis). Described as above.
Test [3] concerns the target TarM(Se) N9A mutant (S. epidermidis). The test is described as above.
Test [4] deals with TarM(Se) N203A mutant (S. epidermidis). The test is described as above.
In test [5] the target is TarM(Se) N255A mutant (S. epidermidis). Described as above.
Test [6] deals with TarM(Se) Q265A mutant (S. epidermidis). The test is described as above.
In test [7] the target is TarM(Se), WTA glycosyltransferase TarM of S. epidermidis, wild type (S. epidermidis). Briefly: crystal structure.
Test [8] has the same target. Description: SEC; Superdex 200 increase 10/30, calibrated column; buffer D: 20 mM triethanolamine pH 7.8 (TarM(Se)_(G117R)) or 8.5 (TarM(Se) and mutant proteins), 250 mM LiCl, 10 mM β-mercaptoethanol, 5% glycerol. On the technique in general: In gel filtration, larger molecules generally elute earlier.

For the compound `NCCCCCCOP(=O)(O)OC[C@@H](O)[C@@H](O)[C@@H](O)COP(=O)(O)OC[C@@H](O)[C@@H](O)[C@@H](O)COP(=O)(O)OC[C@@H](O)[C@@H](O)[C@@H](O)COP(=O)(O)OC[C@@H](O)[C@@H](O)[C@@H](O)CO` [4RboP-(CH2)6NH2], the “X-ray crystal structure (cocrystallization)” value in the test on TarM(Se) is listed as “The 4RboP-(CH2)6NH2 compound was introduced into the TarM(Se)G117R crystals through cocrystallization”.

By stoichiometry N is commonly meant a count of units in the complex or per binding partner. Compound TarM(Se) E10A mutant (enzyme) displayed a stoichiometry N in test [1] of 3.

For TarM(Se) K233A mutant (enzyme), the stoichiometry N in [2] amounted to 3.

Compound TarM(Se) N9A mutant (enzyme) had a stoichiometry N in test [3] of 3.

In test [4], TarM(Se) N203A mutant (enzyme) gave a stoichiometry N of 3.

As for TarM(Se) N255A mutant (enzyme), in test [5], the stoichiometry N is 3.

TarM(Se) Q265A mutant (enzyme) had a stoichiometry N in [6] of 3.

Turning to “TarM(Se), WTA glycosyltransferase TarM of S. epidermidis, wild type (enzyme)”, the stoichiometry N in test [7] and in test [8] was 3 in each case.
